According to article PMC12551704, “Metabolic regulation of behavior by the intestinal enzyme FMO-2” (Science Advances, 2025):

Key:
FMO-2 = molecular target: T1, FMO-2 (Caenorhabditis elegans, UniProt G5EBJ9); test: NADPH consumption at […] nm, Michaelis-Menten fit; assay type: biochemical; settings: 0.5 mM NADPH, excess FAD, 25 mM sodium phosphate pH 8.5, 0.5 mM DETAPAC, 30 C; 0.1-10 mM substrate
T1 construct: purified FMO-2 protein purchased from GenScript
T1 sequence (G5EBJ9 1-529): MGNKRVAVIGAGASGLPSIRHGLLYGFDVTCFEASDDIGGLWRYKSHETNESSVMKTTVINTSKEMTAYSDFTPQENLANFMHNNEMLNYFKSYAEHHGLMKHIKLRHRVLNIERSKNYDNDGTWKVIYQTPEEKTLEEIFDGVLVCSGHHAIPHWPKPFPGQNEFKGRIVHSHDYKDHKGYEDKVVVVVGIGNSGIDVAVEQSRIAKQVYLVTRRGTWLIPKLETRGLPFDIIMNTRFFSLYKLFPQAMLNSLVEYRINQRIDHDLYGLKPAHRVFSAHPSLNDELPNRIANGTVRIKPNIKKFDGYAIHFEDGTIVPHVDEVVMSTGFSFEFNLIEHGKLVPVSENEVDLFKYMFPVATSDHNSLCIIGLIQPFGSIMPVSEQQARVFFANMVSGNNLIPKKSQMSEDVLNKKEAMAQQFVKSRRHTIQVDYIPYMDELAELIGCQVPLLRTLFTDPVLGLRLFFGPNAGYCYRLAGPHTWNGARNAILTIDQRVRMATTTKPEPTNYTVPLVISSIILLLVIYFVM

purified protein = substrate: CC(=O)C(=O)O; test: purified protein; assay type: biochemical, Caenorhabditis elegans; settings: 0.5 mM NADPH, excess FAD, 25 mM sodium phosphate pH 8.5, 0.5 mM DETAPAC, 30 C

| Molecule | Km (FMO-2) [µM] | Km (purified protein) [µM] | kcat (purified protein) [s⁻¹] | kcat/Km (purified protein) [M⁻¹ s⁻¹] |
| --- | --- | --- | --- | --- |
| N[C@@H](Cc1c[nH]c2ccccc12)C(=O)O [tryptophan] | 880 ± 430 |  |  |  |
| FMO-2 (Caenorhabditis elegans) (protein, purified FMO-2 protein purchased from GenScript) MGNKRVAVIGAGASGLPSIRHGLLYGFDVTCFEASDDIGGLWRYKSHETNESSVMKTTVINTSKEMTAYSDFTPQENLANFMHNNEMLNYFKSYAEHHGLMKHIKLRHRVLNIERSKNYDNDGTWKVIYQTPEEKTLEEIFDGVLVCSGHHAIPHWPKPFPGQNEFKGRIVHSHDYKDHKGYEDKVVVVVGIGNSGIDVAVEQSRIAKQVYLVTRRGTWLIPKLETRGLPFDIIMNTRFFSLYKLFPQAMLNSLVEYRINQRIDHDLYGLKPAHRVFSAHPSLNDELPNRIANGTVRIKPNIKKFDGYAIHFEDGTIVPHVDEVVMSTGFSFEFNLIEHGKLVPVSENEVDLFKYMFPVATSDHNSLCIIGLIQPFGSIMPVSEQQARVFFANMVSGNNLIPKKSQMSEDVLNKKEAMAQQFVKSRRHTIQVDYIPYMDELAELIGCQVPLLRTLFTDPVLGLRLFFGPNAGYCYRLAGPHTWNGARNAILTIDQRVRMATTTKPEPTNYTVPLVISSIILLLVIYFVM |  | 590 ± 290 | 35 ± 1 | 59000 |
